Numbered stars: 1 amine (or outer) side, 2 acyl side, 3 side chain; on linkers, the order of the positions; unused ones are H or OH. Bridge positions count the residues as written; N and C are the ends. Square brackets hold non-standard residues; d marks the D form. Ends that are not written are not given here. Glu(OMe) = L-glutamic acid gamma-methyl ester, COC(=O)CC[C@H](N[*:1])C(=O)[*:2]; Phe(4-COOH) = N[C@@H](Cc1ccc(C(=O)O)cc1)C(=O)O; Phe(4-tBu) = CC(C)(C)c1ccc(C[C@H](N)C(=O)O)cc1; NMeR = CN[C@@H](CCCNC(=N)N)C(=O)O; β3hE = N[C@@H](CCC(=O)O)CC(=O)O; NMeK = CN[C@@H](CCCCN)C(=O)O; Pen = CC(C)(S)[C@H](N)C(=O)O; βAla = NCCC(=O)O
B1: SEQ ID NO: 152 (peptide)
peptide: Ac-[Pen][NMeR]SDTL[Pen][Phe(4-tBu)][β3hE]-OH
modifications: disulfide 1-7
SMILES: CC(=O)N[C@@H]1C(=O)N(C)[C@@H](CCCNC(=N)N)C(=O)N[C@@H](CO)C(=O)N[C@@H](CC(=O)O)C(=O)N[C@@H]([C@@H](C)O)C(=O)N[C@@H](CC(C)C)C(=O)N[C@H](C(=O)N[C@@H](Cc2ccc(C(C)(C)C)cc2)C(=O)N[C@@H](CCC(=O)O)CC(=O)O)C(C)(C)SSC1(C)C
B2: SEQ ID NO: 130 (peptide)
peptide: Ac-[Pen][NMeR]SDTL[Pen][Phe(4-COOH)][β3hE][dK]-NH2
modifications: disulfide 1-7; not fully specified (residue 10); printed as (Ac Pen N-Me-R S D T L Pen F(4-COOH) b-H-E k NH2)2 DIG, disulfide Pen-Pen; also: homodimer, two subunits joined by DIG linker
B3: SEQ ID NO: 168 (peptide)
peptide: Ac-[Pen][NMeR]SDTL[Pen][Phe(4-tBu)][β3hE][dK]-OH
modifications: disulfide 1-7; not fully specified (residue 10); printed as (Ac Pen N-Me-R S D T L Pen F(4tBu) b-H-E k OH)2 DIG, disulfide Pen-Pen; also: homodimer (…)2 DIG via D-Lys10 NZ
B4: SEQ ID NO: 133 (peptide)
peptide: Ac-[Pen][NMeR]SDTL[Pen][Phe(4-tBu)]E[NMeK]-NH2
modifications: disulfide 1-7; not fully specified (residue 10); printed as (Ac Pen N-Me-R S D T L Pen F(4tBu) E N-Me-K NH2)2 DIG, disulfide Pen-Pen; also: homodimer, two subunits joined by DIG linker
B5: SEQ ID NO: 147 (peptide)
peptide: Ac-[Pen][NMeR]SDTL[Pen][Phe(4-COOH)]E[NMeK]-NH2
modifications: disulfide 1-7; not fully specified (residue 10); printed as (Ac Pen N-Me-R S D T L Pen F(4-COOH) E N-Me-K NH2)2 DIG, disulfide Pen-Pen; also: homodimer (…)2 DIG via Lys10 NZ
B6: SEQ ID NO: 149 (peptide)
peptide: Ac-[Pen][NMeR]SDTL[Pen][Phe(4-tBu)][β3hE][NMeK]-NH2
modifications: disulfide 1-7; not fully specified (residue 10); printed as (Ac Pen N-Me-R S D T L Pen F(4-tBu) b-H-E N-Me-K NH2)2 DIG, disulfide Pen-Pen; also: homodimer (…)2 DIG via Lys10 NZ
B7: SEQ ID NO: 129 (peptide)
peptide: Ac-[Pen][NMeR]SDTL[Pen][Phe(4-COOH)]E[dK]-NH2
modifications: disulfide 1-7; not fully specified (residue 10); printed as (Ac Pen N-Me-R S D T L Pen F(4-COOH) E k NH2)2 DIG, disulfide Pen-Pen; also: homodimer: two subunits joined by DIG linker
B8: SEQ ID NO: 54 (peptide)
peptide: [βAla][Pen][NMeR]SDTL[Pen]WE-NH2
modifications: disulfide 2-8; not fully specified (N-terminus); printed as DIG (NH2 Beta-Ala Pen N-Me-R S D T L Pen W E NH2)2, disulfide Pen-Pen; also: homodimer: two subunits linked by DIG via N-terminal Beta-Ala amine
notes: linker printed at the N-terminus
B9: SEQ ID NO: 153 (peptide)
peptide: Ac-[Pen][NMeR]SDTL[Pen][Phe(4-tBu)][β3hE][dK]-NH2
modifications: disulfide 1-7
SMILES: CC(=O)N[C@@H]1C(=O)N(C)[C@@H](CCCNC(=N)N)C(=O)N[C@@H](CO)C(=O)N[C@@H](CC(=O)O)C(=O)N[C@@H]([C@@H](C)O)C(=O)N[C@@H](CC(C)C)C(=O)N[C@H](C(=O)N[C@@H](Cc2ccc(C(C)(C)C)cc2)C(=O)N[C@@H](CCC(=O)O)CC(=O)N[C@H](CCCCN)C(N)=O)C(C)(C)SSC1(C)C
B10: SEQ ID NO: 22 (peptide)
peptide: Ac-[Pen][NMeR]SDTL[Pen]YE[dK]-NH2
modifications: disulfide 1-7; not fully specified (residue 10); printed as (Ac Pen N-Me-R S D T L Pen Y E k NH2)2 DIG, disulfide Pen-Pen; also: dimer, two subunits joined by DIG linker
B11: SEQ ID NO: 141 (peptide)
peptide: Ac-[Pen][NMeR]SDTL[Pen]W[β3hE][NMeK]-NH2
modifications: disulfide 1-7; not fully specified (residue 10); printed as (Ac Pen N-Me-R S D T L Pen W b-H-E N-Me-K NH2)2 DIG, disulfide Pen-Pen; also: homodimer (…)2 DIG via Lys10 NZ
B12: SEQ ID NO: 217 (peptide)
peptide: Ac-[Pen][NMeR]SDTL[Pen]WE[dK]-NH2
modifications: disulfide 1-7; not fully specified (residue 10); printed as (Ac Pen N-Me-R S D T L Pen W E k NH2)2 DIG, disulfide Pen-Pen; also: dimer, two subunits joined by DIG linker
notes: also called peptide 217
B13: SEQ ID NO: 213 (peptide)
peptide: Ac-[Pen][NMeR]SDTL[Pen]W[β3hE][dK]-NH2
modifications: disulfide 1-7; not fully specified (residue 10); printed as (Ac Pen N-Me-R S D T L Pen W b-h-E k NH2)2 DIG, disulfide Pen-Pen; also: dimer, two subunits joined by DIG linker
notes: also called peptide 213; Peptide XX
B14: SEQ ID NO: 148 (peptide)
peptide: Ac-[Pen][NMeR]SDTL[Pen][Phe(4-COOH)][β3hE][NMeK]-NH2
modifications: disulfide 1-7; not fully specified (residue 10); printed as (Ac Pen N-Me-R S D T L Pen F(4-COOH) b-H-E N-Me-K NH2)2 DIG, disulfide Pen-Pen; also: homodimer (…)2 DIG via Lys10 NZ
B15: SEQ ID NO: 86 (peptide)
peptide: Ac-[Pen][NMeR]SDTL[Pen]W[Glu(OMe)][dK]-NH2
modifications: disulfide 1-7; not fully specified (residue 10); printed as (Ac Pen N-Me-R S D T L Pen W E(OMe) k NH2)2 DIG, disulfide Pen-Pen; also: homodimer: two subunits linked by DIG via D-Lys10 side chain

Molecular target: T1, human α4β7 integrin on cells (human, UniProt P13612 34-1032; P26010 20-798)
T1 construct: whole, on cells; also called α4β7 cell (Hu); RPMI8866 cells
Experiment: PBMC memory T cell adhesion

Binder | IC50
B1 | > 25 nM
B2 | ≤ 10 nM
B3 | ≤ 10 nM
B4 | ≤ 10 nM
B5 | ≤ 10 nM
B6 | ≤ 10 nM
B7 | ≤ 10 nM

Molecular target: T2, α4β1 (R&D Systems #5668-A4) (UniProt P13612 34-970; P05556 21-728, limits assumed)
T2 construct: bought; also called soluble α4β1
Experiment: competition ELISA vs VCAM-1

Binder | IC50
XRSDTLXWE (Ac Pen N-Me-R S D T L Pen W b-H-E OH; disulfide Pen-Pen) [SEQ ID NO: 146] | > 1000 nM
B1 | > 100 nM
B8 | > 100 nM
B6 | > 500 nM
B9 | > 1000 nM
B10 | > 100 nM
B11 | > 500 nM

Molecular target: T2, α4β1 (R&D Systems #5668-A4)
Experiment: competition ELISA vs VCAM-1
Remark: another data set of the same source

Binder | IC50
B12 | 315 nM
B13 | 539 nM
Ac-C[NMeR]SDTL[Pen][dK]-NH2 (disulfide 1-7; also: homodimer via IDA linker on D-Lys8 side chains, also called peptide 203) [SEQ ID NO: 203] | 700 nM
Ac-[Pen][NMeR]SDTL[Pen]W[dE][dK]-NH2 (disulfide 1-7; also: dimer, two subunits joined by DIG linker, also called peptide 211) [SEQ ID NO: 211] | 302 nM

Molecular target: T3, mouse α4β7 integrin on TK1 cells (mouse, UniProt Q00651 41-1039; P26011 20-806)
T3 construct: whole, on cells; also called α4β7 cell (Mu); Cell Adhesion α4β7 Mouse
T3 sequence (Q00651 41-1039, chain 1 of 2): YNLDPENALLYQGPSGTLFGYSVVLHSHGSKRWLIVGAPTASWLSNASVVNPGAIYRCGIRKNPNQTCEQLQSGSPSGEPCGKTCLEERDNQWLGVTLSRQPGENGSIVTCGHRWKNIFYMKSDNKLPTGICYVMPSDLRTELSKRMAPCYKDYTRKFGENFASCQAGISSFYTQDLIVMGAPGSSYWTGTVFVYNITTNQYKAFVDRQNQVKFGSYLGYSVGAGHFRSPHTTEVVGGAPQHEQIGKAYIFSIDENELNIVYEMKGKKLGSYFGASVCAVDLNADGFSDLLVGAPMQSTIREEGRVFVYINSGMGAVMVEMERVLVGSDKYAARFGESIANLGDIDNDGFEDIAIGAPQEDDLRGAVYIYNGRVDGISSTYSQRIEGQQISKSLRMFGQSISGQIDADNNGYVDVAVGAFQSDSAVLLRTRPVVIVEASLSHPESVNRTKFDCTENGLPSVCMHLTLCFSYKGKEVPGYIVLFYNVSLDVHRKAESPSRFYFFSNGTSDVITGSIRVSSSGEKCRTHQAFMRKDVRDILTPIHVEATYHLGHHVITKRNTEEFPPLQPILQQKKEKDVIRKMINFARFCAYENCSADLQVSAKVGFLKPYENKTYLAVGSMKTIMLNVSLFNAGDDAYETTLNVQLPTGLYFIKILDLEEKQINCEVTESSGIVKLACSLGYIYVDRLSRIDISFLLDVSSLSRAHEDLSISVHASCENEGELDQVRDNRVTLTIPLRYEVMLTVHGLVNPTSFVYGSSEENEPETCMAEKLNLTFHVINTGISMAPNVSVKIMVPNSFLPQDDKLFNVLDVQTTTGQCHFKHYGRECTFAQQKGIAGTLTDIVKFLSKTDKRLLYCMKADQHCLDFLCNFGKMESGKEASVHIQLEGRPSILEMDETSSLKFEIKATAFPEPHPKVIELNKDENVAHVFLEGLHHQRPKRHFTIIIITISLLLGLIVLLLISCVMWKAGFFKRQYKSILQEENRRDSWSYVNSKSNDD
T3 sequence (P26011 20-806, chain 2 of 2): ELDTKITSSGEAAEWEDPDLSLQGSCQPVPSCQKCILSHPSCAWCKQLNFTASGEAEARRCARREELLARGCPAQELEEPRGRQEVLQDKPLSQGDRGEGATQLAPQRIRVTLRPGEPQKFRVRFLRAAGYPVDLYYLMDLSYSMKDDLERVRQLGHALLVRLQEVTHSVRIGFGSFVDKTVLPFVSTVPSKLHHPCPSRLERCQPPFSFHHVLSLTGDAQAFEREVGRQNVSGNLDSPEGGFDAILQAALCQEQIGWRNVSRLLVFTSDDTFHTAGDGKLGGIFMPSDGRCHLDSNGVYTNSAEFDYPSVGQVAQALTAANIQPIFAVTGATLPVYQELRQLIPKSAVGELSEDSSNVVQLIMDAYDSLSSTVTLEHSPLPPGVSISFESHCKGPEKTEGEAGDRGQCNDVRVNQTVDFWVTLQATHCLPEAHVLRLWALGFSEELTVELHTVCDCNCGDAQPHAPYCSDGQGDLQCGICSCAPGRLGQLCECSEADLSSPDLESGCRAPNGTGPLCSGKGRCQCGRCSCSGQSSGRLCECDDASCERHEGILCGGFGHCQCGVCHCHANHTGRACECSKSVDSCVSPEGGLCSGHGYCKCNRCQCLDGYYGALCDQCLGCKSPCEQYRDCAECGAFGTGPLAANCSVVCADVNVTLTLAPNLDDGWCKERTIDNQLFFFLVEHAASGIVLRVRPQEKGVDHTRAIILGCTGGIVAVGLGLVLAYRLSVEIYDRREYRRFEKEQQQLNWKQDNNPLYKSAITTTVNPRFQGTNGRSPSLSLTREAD
Experiment: TK1 cell adhesion to MAdCAM-1

Binder | IC50
XRSDTLXWE (Ac Pen N-Me-R S D T L Pen W b-H-E OH; disulfide Pen-Pen) [SEQ ID NO: 146] | > 50 nM
B1 | ≤ 10 nM
B5 | ≤ 10 nM
B6 | ≤ 10 nM
B9 | > 10 nM
B14 | ≤ 10 nM
B15 | ≤ 10 nM

Molecular target: T4, rh integrin α4β7 (R&D Systems #5397-A30) (human, UniProt P13612 34-970; P26010 20-723)
T4 construct: bought; coated on a nickel coated plate; also called immobilized α4β7; immobilized α4β7 integrin protein
Experiment: competition ELISA vs MAdCAM-1

Binder | IC50
B1 | ≤ 10 nM
B2 | ≤ 10 nM
B4 | ≤ 10 nM
B5 | ≤ 10 nM
B6 | ≤ 10 nM
B9 | > 10 nM
B14 | ≤ 10 nM
B7 | ≤ 10 nM
B10 | ≤ 10 nM
B11 | ≤ 10 nM

Molecular target: T3, mouse α4β7 integrin on TK1 cells
Experiment: TK1 cell adhesion to MAdCAM-1
Remark: another data set of the same source

Binder | IC50
B12 | 1.2 nM
B13 | 4.2 nM
Ac-C[NMeR]SDTL[Pen][dK]-NH2 (disulfide 1-7; also: homodimer via IDA linker on D-Lys8 side chains, also called peptide 203) [SEQ ID NO: 203] | 633 nM
Ac-[Pen][NMeR]SDTL[Pen]W[dE][dK]-NH2 (disulfide 1-7; also: dimer, two subunits joined by DIG linker, also called peptide 211) [SEQ ID NO: 211] | 7.3 nM

Molecular target: T4, rh integrin α4β7 (R&D Systems #5397-A30)
Experiment: competition ELISA vs MAdCAM-1
Remark: another data set of the same source

Binder | IC50
B12 | 2.3 nM
B13 | 4.7 nM
Ac-C[NMeR]SDTL[Pen][dK]-NH2 (disulfide 1-7; also: homodimer via IDA linker on D-Lys8 side chains, also called peptide 203) [SEQ ID NO: 203] | 7.5 nM
Ac-[Pen][NMeR]SDTL[Pen]W[dE][dK]-NH2 (disulfide 1-7; also: dimer, two subunits joined by DIG linker, also called peptide 211) [SEQ ID NO: 211] | 3 nM

Molecular target: T5, human α4β1 integrin on cells (human, UniProt P13612 34-1032; P05556 21-798)
T5 construct: whole, on cells; also called α4β1 cell; Jurkat cells
Experiment: Jurkat cell adhesion to VCAM-1

Binder | IC50
B12 | > 100000 nM
B13 | > 100000 nM
Ac-C[NMeR]SDTL[Pen][dK]-NH2 (disulfide 1-7; also: homodimer via IDA linker on D-Lys8 side chains, also called peptide 203) [SEQ ID NO: 203] | > 100000 nM
Ac-[Pen][NMeR]SDTL[Pen]W[dE][dK]-NH2 (disulfide 1-7; also: dimer, two subunits joined by DIG linker, also called peptide 211) [SEQ ID NO: 211] | > 100000 nM

Molecular target: T1, human α4β7 integrin on cells
Experiment: RPMI8866 cell adhesion to MAdCAM-1

Binder | IC50
XRSDTLXWE (Ac Pen N-Me-R S D T L Pen W b-H-E OH; disulfide Pen-Pen) [SEQ ID NO: 146] | > 50 nM
B1 | ≤ 10 nM
B2 | ≤ 10 nM
B8 | > 25 nM
B3 | ≤ 10 nM
B5 | ≤ 10 nM
B6 | ≤ 10 nM
B9 | > 10 nM
B14 | ≤ 10 nM
B7 | ≤ 10 nM
B10 | ≤ 10 nM
B15 | ≤ 10 nM
B11 | ≤ 10 nM

Molecular target: T1, human α4β7 integrin on cells
Experiment: RPMI8866 cell adhesion to MAdCAM-1
Remark: another data set of the same source

Binder | IC50
B12 | 3.2 nM
B13 | 12 nM
Ac-C[NMeR]SDTL[Pen][dK]-NH2 (disulfide 1-7; also: homodimer via IDA linker on D-Lys8 side chains, also called peptide 203) [SEQ ID NO: 203] | 200 nM
Ac-[Pen][NMeR]SDTL[Pen]W[dE][dK]-NH2 (disulfide 1-7; also: dimer, two subunits joined by DIG linker, also called peptide 211) [SEQ ID NO: 211] | 22 nM
